The results in this text go back to article PMC8183521 (2021).

This experiment has as its target SARS-CoV-2 (2019-nCoV) Spike RBD-His Recombinant Protein (SARS-CoV-2, UniProt P0DTC2 319-541). As to the kind of experiment: ELISA. A general note: In an ELISA, binding on a coated surface is turned into a signal by an enzyme label.

As a reminder, the EC50 is the concentration that produces a half-maximal response.

B1: B-38 (antibody, V domains shown)
VH: EVQLVESGGGLVQPGGSLRLSCAASGFIVSSNYMSWVRQAPGKGLEWVSVIYSGGSTYYADSVKGRFTISRHNSKNTLYLQMNSLRAEDTAVYYCAREAYGMDVWGQGTTVTVSS
VL: DIVMTQSPSFLSASVGDRVTITCRASQGISSYLAWYQQKPGKAPKLLIYAASTLQSGVPSRFSGSGSGTEFTLTISSLQPEDFATYYCQQLNSYPPYTFGQGTKLEIK
Take B1: the EC50 came out at 1.5 µg/mL.
